Molecular target: mCherry-TurboID-CD9
Test: proximity labelling + proximity ligation

Molecule: Gabrb3 (from UniProt P63080 26-473) (natural protein)
- PLA puncta (Streptavidin–Gabrb3), APP-TB mice: 1530 puncta
- PLA puncta (Streptavidin–Gabrb3), WT-TB mice: 1500 puncta

Molecule: Ncam1 (from UniProt P13595 20-1115) (natural protein)
- PLA puncta (Streptavidin–Ncam1), APP-TB mice: 1790 puncta
- PLA puncta (Streptavidin–Ncam1), WT-TB mice: 1260 puncta

B1: Gad1 (enzyme)
chain: MASSTPSPATSSNAGADPNTTNLRPTTYDTWCGVAHGCTRKLGLKICGFLQRTNSLEEKSRLVSAFRERQSSKNLLSCENSDQGARFRRTETDFSNLFAQDLLPAKNGEEQTAQFLLEVVDILLNYVRKTFDRSTKVLDFHHPHQLLEGMEGFNLELSDHPESLEQILVDCRDTLKYGVRTGHPRFFNQLSTGLDIIGLAGEWLTSTANTNMFTYEIAPVFVLMEQITLKKMREIVGWSNKDGDGIFSPGGAISNMYSIMAARYKYFPEVKTKGMAAVPKLVLFTSEHSHYSIKKAGAALGFGTDNVILIKCNERGKIIPADLEAKILDAKQKGYVPLYVNATAGTTVYGAFDPIQEIADICEKYNLWLHVDAAWGGGLLMSRKHRHKLSGIERANSVTWNPHKMMGVLLQCSAILVKEKGILQGCNQMCAGYLFQPDKQYDVSYDTGDKAIQCGRHVDIFKFWLMWKAKGTVGFENQINKCLELADYLYAKIKNREEFEMVFDGEPEHTNVCFWYIPQSLRGVPDSPERREKLHRVAPKIKALMMESGTTMVGYQPQGDKANFFRMVISNPAATQSDIDFLIEEIERLGQDL
- PLA puncta (Streptavidin–Gad1), APP-TB mice: 2120 puncta
